From US20240209076A1 (KODIAK SCIENCES, published 2024)
Changes are numbered by the printed parent chain. Names and notes keep the numbering of the source.

B1: Anti-IL-6 antibody, heavy chain S35H, G66D, Q99L / light chain M32L, M50D, N52S, M88Q (antibody, IgG1, V domains shown)
VH: EVQLVESGGGLVQPGGSLRLSCAASGFTFSPFAMHWVRQAPGKGLEWVAKISPGGSWTYYSDTVTDRFTFSLDTSKSTAYLQMNSLRAEDTAVYYCARLLWGYYALDIWGQGTLVTVSS
VL: DIQLTQSPSSLSASVGDRVTITCSASISVSYLYWYQQKPGKAPKLLIYDDSSLASGVPSRFSGSGSGTDFTLTISSLQPEDFATYYCQQWSGYPYTFGQGTKVEIK
notes: IgG1; variable domains only; VL is variant III
B2: Anti-IL-6 antibody, heavy chain S35H, G66D, Q99L / light chain WT (antibody, IgG1, V domains shown)
VH: B1 VH
VL: B1 VL with L32M, D50M, S52N, Q88M
notes: IgG1; variable domains only
B3: Anti-IL-6 antibody, heavy chain S35H, G66D, Q99P / light chain M32L, M50D, N52S, M88Q (antibody, IgG1, V domains shown)
VH: B1 VH with L99P
VL: B1 VL
notes: as for B1
B4: Anti-IL-6 antibody, heavy chain S35H, G66D, Q99R / light chain M32L, M50D, N52S, M88Q (antibody, IgG1, V domains shown)
VH: B1 VH with L99R
VL: B1 VL
notes: as for B1
B5: Anti-IL-6 antibody, heavy chain S35H, G66D, Q99R / light chain WT (antibody, IgG1, V domains shown)
VH: B1 VH with L99R
VL: B1 VL with L32M, D50M, S52N, Q88M
notes: IgG1; variable domains only
B6: Anti-IL-6 antibody, heavy chain S35H, G66D, Q99S / light chain M32L, M50D, N52S, M88Q (antibody, IgG1, V domains shown)
VH: B1 VH with L99S
VL: B1 VL
notes: as for B1
B7: Anti-IL-6 antibody, heavy chain S35H, G66D, Q99S / light chain WT (antibody, IgG1, V domains shown)
VH: B1 VH with L99S
VL: B1 VL with L32M, D50M, S52N, Q88M
notes: IgG1; variable domains only
B8: Anti-IL-6 antibody, heavy chain S35H, G66D, Q99T / light chain M32L, M50D, N52S, M88Q (antibody, IgG1, V domains shown)
VH: B1 VH with L99T
VL: B1 VL
notes: as for B1
B9: Anti-IL-6 antibody, heavy chain S35H, G66D, Q99T / light chain WT (antibody, IgG1, V domains shown)
VH: B1 VH with L99T
VL: B1 VL with L32M, D50M, S52N, Q88M
notes: IgG1; variable domains only
B10: Anti-IL-6 antibody, heavy chain S35H, G66D, Q99V / light chain M32L, M50D, N52S, M88Q (antibody, IgG1, V domains shown)
VH: B1 VH with L99V
VL: B1 VL
notes: as for B1
B11: Anti-IL-6 antibody, heavy chain S35H, G66D, Q99V / light chain WT (antibody, IgG1, V domains shown)
VH: B1 VH with L99V
VL: B1 VL with L32M, D50M, S52N, Q88M
notes: IgG1; variable domains only
B12: Anti-IL-6 antibody, heavy chain S35H, G66D, Q99Y / light chain M32L, M50D, N52S, M88Q (antibody, IgG1, V domains shown)
VH: B1 VH with L99Y
VL: B1 VL
notes: as for B1
B13: Anti-IL-6 antibody, heavy chain S35H, G66D, Q99Y / light chain WT (antibody, IgG1, V domains shown)
VH: B1 VH with L99Y
VL: B1 VL with L32M, D50M, S52N, Q88M
notes: IgG1; variable domains only
B14: Anti-IL-6 antibody, heavy chain WT / light chain M32L, M50D, N52S, M88Q (antibody, IgG1, V domains shown)
VH: B1 VH with H35S, D66G, L99Q
VL: B1 VL
notes: as for B1
B15: anti-IL-6 antibody, heavy chain I51A, G66D / light chain M32L, M50D, N52S, M88Q (antibody, IgG1, V domains shown)
VH: B1 VH with H35S, I51A, L99Q
VL: B1 VL
notes: Full IgG1 (Expi293); VL = variant III
B16: anti-IL-6 antibody, heavy chain I51D, G66D / light chain M32L, M50D, N52S, M88Q (antibody, IgG1, V domains shown)
VH: B1 VH with H35S, I51D, L99Q
VL: B1 VL
notes: as for B15
B17: anti-IL-6 antibody, heavy chain I51E, G66D / light chain M32L, M50D, N52S, M88Q (antibody, IgG1, V domains shown)
VH: B1 VH with H35S, I51E, L99Q
VL: B1 VL
notes: as for B15
B18: anti-IL-6 antibody, heavy chain I51F, G66D / light chain M32L, M50D, N52S, M88Q (antibody, IgG1, V domains shown)
VH: B1 VH with H35S, I51F, L99Q
VL: B1 VL
notes: as for B15
B19: anti-IL-6 antibody, heavy chain I51G, G66D / light chain M32L, M50D, N52S, M88Q (antibody, IgG1, V domains shown)
VH: B1 VH with H35S, I51G, L99Q
VL: B1 VL
notes: as for B15
B20: anti-IL-6 antibody, heavy chain I51H, G66D / light chain M32L, M50D, N52S, M88Q (antibody, IgG1, V domains shown)
VH: B1 VH with H35S, I51H, L99Q
VL: B1 VL
notes: as for B15
B21: anti-IL-6 antibody, heavy chain I51K, G66D / light chain M32L, M50D, N52S, M88Q (antibody, IgG1, V domains shown)
VH: B1 VH with H35S, I51K, L99Q
VL: B1 VL
notes: as for B15
B22: anti-IL-6 antibody, heavy chain I51L, G66D / light chain M32L, M50D, N52S, M88Q (antibody, IgG1, V domains shown)
VH: B1 VH with H35S, I51L, L99Q
VL: B1 VL
notes: as for B15
B23: anti-IL-6 antibody, heavy chain I51Q, G66D / light chain M32L, M50D, N52S, M88Q (antibody, IgG1, V domains shown)
VH: B1 VH with H35S, I51Q, L99Q
VL: B1 VL
notes: as for B15
B24: anti-IL-6 antibody, heavy chain I51R, G66D / light chain M32L, M50D, N52S, M88Q (antibody, IgG1, V domains shown)
VH: B1 VH with H35S, I51R, L99Q
VL: B1 VL
notes: as for B15
B25: anti-IL-6 antibody, heavy chain I51S, G66D / light chain M32L, M50D, N52S, M88Q (antibody, IgG1, V domains shown)
VH: B1 VH with H35S, I51S, L99Q
VL: B1 VL
notes: as for B15
B26: anti-IL-6 antibody, heavy chain I51T, G66D / light chain M32L, M50D, N52S, M88Q (antibody, IgG1, V domains shown)
VH: B1 VH with H35S, I51T, L99Q
VL: B1 VL
notes: as for B15
B27: anti-IL-6 antibody, heavy chain I51V, G66D / light chain M32L, M50D, N52S, M88Q (antibody, IgG1, V domains shown)
VH: B1 VH with H35S, I51V, L99Q
VL: B1 VL
notes: as for B15
B28: anti-IL-6 antibody, heavy chain I51W, G66D / light chain M32L, M50D, N52S, M88Q (antibody, IgG1, V domains shown)
VH: B1 VH with H35S, I51W, L99Q
VL: B1 VL
notes: as for B15
B29: anti-IL-6 antibody, heavy chain I51Y, G66D / light chain M32L, M50D, N52S, M88Q (antibody, IgG1, V domains shown)
VH: B1 VH with H35S, I51Y, L99Q
VL: B1 VL
notes: as for B15
B30: anti-IL-6 antibody, heavy chain S35A, G66D / light chain M32L, M50D, N52S, M88Q (antibody, IgG1, V domains shown)
VH: B1 VH with H35A, L99Q
VL: B1 VL
notes: as for B15
B31: anti-IL-6 antibody, heavy chain S35D, G66D / light chain M32L, M50D, N52S, M88Q (antibody, IgG1, V domains shown)
VH: B1 VH with H35D, L99Q
VL: B1 VL
notes: as for B15
B32: anti-IL-6 antibody, heavy chain S35E, G66D / light chain M32L, M50D, N52S, M88Q (antibody, IgG1, V domains shown)
VH: B1 VH with H35E, L99Q
VL: B1 VL
notes: as for B15
B33: anti-IL-6 antibody, heavy chain S35F, G66D / light chain M32L, M50D, N52S, M88Q (antibody, IgG1, V domains shown)
VH: B1 VH with H35F, L99Q
VL: B1 VL
notes: as for B15
B34: anti-IL-6 antibody, heavy chain S35G, G66D / light chain M32L, M50D, N52S, M88Q (antibody, IgG1, V domains shown)
VH: B1 VH with H35G, L99Q
VL: B1 VL
notes: as for B15
B35: anti-IL-6 antibody, heavy chain S35I, G66D / light chain M32L, M50D, N52S, M88Q (antibody, IgG1, V domains shown)
VH: B1 VH with H35I, L99Q
VL: B1 VL
notes: as for B15
B36: anti-IL-6 antibody, heavy chain S35K, G66D / light chain M32L, M50D, N52S, M88Q (antibody, IgG1, V domains shown)
VH: B1 VH with H35K, L99Q
VL: B1 VL
notes: as for B15

Biological target: human IL-6 (human, UniProt P05231 30-212)
Assay: SPR Biacore, supernatant, Protein A capture, 37 C
Description: Those four positions were selected based on their tolerance for mutations as observed in bacterial and mammalian screens. […] These cultures were centrifuged and supernatants containing secreted antibodies were harvested and diluted in HBS-EP+ running buffer (1:20 ratio).
(§1) Antibodies were captured on a Protein A chip (GE) by injecting 1:20 cell supernatant dilutions at 10 μL/min for 60 seconds. […] The sensor chip was regenerated by a 60 seconds injection of 10 mM Glycine pH 1.7 at the flow rate of 50 μL/min. […] For this setup, 1 μg/mL of purified antibody was injected over a Protein A chip at 10 μL/min for 25 seconds. […] The sensor chip was regenerated by a 60 seconds injection of 10 mM Glycine pH 1.7 at flow rate of 50 μL/min. Data analysis for supernatant and purified samples were performed using BIAevaluation software (GE). All sensorgrams were double reference subtracted and fit using a 1:1 Langmuir binding model.
Target sequence in this assay (P05231 30-212 limits assumed): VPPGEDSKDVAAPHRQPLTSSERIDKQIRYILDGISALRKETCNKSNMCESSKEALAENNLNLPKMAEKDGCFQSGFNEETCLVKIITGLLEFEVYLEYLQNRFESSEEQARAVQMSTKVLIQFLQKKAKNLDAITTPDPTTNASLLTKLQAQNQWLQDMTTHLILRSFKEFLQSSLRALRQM

Row | Binder | Kd [nM] | koff [s⁻¹] | kon [M⁻¹ s⁻¹]
1 | B1 | 0.595 | 0.000775 | 1.3e+06
2 | B2 | 0.244 | 0.000262 | 1.07e+06
3 | B3 | 1.35 | 0.00169 | 1.25e+06
4 | B4 | 2.34 | 0.000657 | 280000
5 | B5 | 11.4 | 0.00161 | 141000
6 | B6 | 7.66 | 0.00154 | 201000
7 | B7 | 6.48 | 0.0257 | 3.96e+06
8 | B8 | 6.51 | 0.049 | 7.52e+06
9 | B9 | 1.31 | 0.00222 | 1.69e+06
10 | B10 | 1.76 | 0.0014 | 794000
11 | B11 | 4.8 | 0.00431 | 898000
12 | B12 | 2.51 | 0.00547 | 2.17e+06
13 | B13 | 0.825 | 0.00215 | 2.6e+06
14 | B14 | 0.686 | 0.000631 | 920000

Biological target: T1, human IL-6 (human, UniProt P05231 30-212)
T1 construct: IL-6 flowed over captured antibodies
Assay: SPR Biacore, supernatant Ab on Protein A chip, 37 C
Description: as §1
T1 sequence (P05231 30-212 limits assumed): as above

Row | Binder | Kd [nM] | koff [s⁻¹] | kon [M⁻¹ s⁻¹]
15 | B15 | 0.559 | 0.000899 | 1.61e+06
16 | B16 | 9.58 | 0.00799 | 834000
17 | B17 | 2.14 | 0.00196 | 914000
18 | B18 | 4.45 | 0.00611 | 1.37e+06
19 | B19 | 0.652 | 0.000912 | 1.4e+06
20 | B20 | 0.5 | 0.00104 | 2.07e+06
21 | B21 | 0.349 | 0.000601 | 1.72e+06
22 | B22 | 0.98 | 0.00161 | 1.64e+06
23 | B23 | 0.575 | 0.00113 | 1.96e+06
24 | B24 | 0.0357 | 5.8e-05 | 1.63e+06
25 | B25 | 0.217 | 0.000401 | 1.85e+06
26 | B26 | 0.233 | 0.000478 | 2.05e+06
27 | B27 | 1.11 | 0.00195 | 1.76e+06
28 | B28 | 4.84 | 0.00383 | 791000
29 | B29 | 4.04 | 0.0247 | 6.1e+06
30 | B30 | 0.657 | 0.00126 | 1.93e+06
31 | B31 | 0.753 | 0.00177 | 2.35e+06
32 | B32 | 0.867 | 0.00189 | 2.18e+06
33 | B33 | 3.17 | 0.00484 | 1.53e+06
34 | B34 | 0.609 | 0.000781 | 1.28e+06
35 | B35 | 1.62 | 0.00147 | 904000
36 | B36 | 2.64 | 0.00346 | 1.31e+06
